# What was measured:
# Mo7e cells = assay: Mo7e proliferation assay with GM-CSF (SCF-independent); type: cell-based, human; conditions: 10 ng/ml GM-CSF, 5 days
# Method: To evaluate the potential antagonistic properties of the naked antibodies and the ability of the antibody drug conjugates (ADCs) to inhibit the proliferation of a cKIT-expressing cell line, MO7e (DSMZ, Catalog # ACC-104, Braunschweig, Del.) were grown in the presence or absence of cKIT ligand, Stem Cell Factor (SCF), for survival. MO7e cells were grown in either 10 ng/ml human granulocyte-macrophage colony-stimulating factor GM-CSF (R&D Systems Cat#215-GM, Minneapolis, Minn.) or 10 ng/ml human Stem Cell Factor SCF (R&D Systems Cat#255-SC) prior to seeding in 96 well plates (Costar Cat #3904, Corning, Tewksbury, Mass.) at 5000 cells/well in 100 μl dilution medium. A duplicate plate was generated for a day 0 measurement and all plates were incubated in a tissue culture incubator at 37° C. with 5% CO2 overnight. […] Assay plates were shaken gently for 20 min and the resulting luminescence intensity was measured using a Perkin Elmer 1450 Microbeta TriLux® plate reader (Perkin Elmer, Waltham, Mass.). […] Following this incubation period, relative cell viability was determined via the addition of Cell titer Glo reagent as described above. The effect of the ADCs on cell proliferation was calculated using the average of the duplicates as follows: (% Inhibition=(ADC or Ab treated)/(untreated)*100) The % inhibition data was fitted to a 4-parameter logistic equation and IC50 values were determined.
# human cKIT ECD = biological target: T1, human cKIT ECD (Homo sapiens, UniProt P10721); assay: SPR (Biacore 2000) affinity measurement; type: binding; conditions: Table 5
# T1 construct: Human cKIT tr. variant 2 , residues 26-520-TAG; His6 (C); made in house; host or cells: HEK293 derived cell lines (293FS), transient transfection
# T1 sequence (P10721 26-520 isoform P10721-2): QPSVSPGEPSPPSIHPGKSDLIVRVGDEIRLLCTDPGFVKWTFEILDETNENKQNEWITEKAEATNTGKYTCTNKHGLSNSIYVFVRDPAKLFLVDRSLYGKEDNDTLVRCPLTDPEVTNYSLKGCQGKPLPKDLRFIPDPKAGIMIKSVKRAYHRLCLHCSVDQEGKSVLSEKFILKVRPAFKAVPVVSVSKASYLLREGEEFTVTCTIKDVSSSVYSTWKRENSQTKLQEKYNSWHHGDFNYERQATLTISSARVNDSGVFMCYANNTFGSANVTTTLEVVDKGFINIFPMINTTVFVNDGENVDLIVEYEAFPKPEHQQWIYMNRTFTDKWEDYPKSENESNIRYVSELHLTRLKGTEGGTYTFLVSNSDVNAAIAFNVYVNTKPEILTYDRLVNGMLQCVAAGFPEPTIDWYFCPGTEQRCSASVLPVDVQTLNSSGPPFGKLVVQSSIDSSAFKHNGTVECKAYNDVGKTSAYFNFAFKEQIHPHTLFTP
# Method: Affinity of the antibodies to cKIT species orthologues and also to cKIT was determined using SPR technology using a Biacore® 2000 instrument (GE Healthcare, Pittsburgh, Pa.) and with CM5 sensor chips.
# Briefly, HBS-P (0.01 M HEPES, pH 7.4, 0.15 M NaCl, 0.005% Surfactant P20) supplemented with 2% Odyssey® blocking buffer (Li-Cor Biosciences, Lincoln, Nebr.) was used as the running buffer for all the experiments. The immobilization level and analyte interactions were measured by response unit (RU). Pilot experiments were performed to test and confirm the feasibility of the immobilization of the anti-human Fc antibody (Catalog number BR100839, GE Healthcare, Pittsburgh, Pa.) and the capture of the test antibodies.
# For kinetic measurements, the experiments were performed in which the antibodies were captured to the sensor chip surface via the immobilized anti-human Fc antibody and the ability of the cKIT proteins to bind in free solution was determined. Briefly, 25 μg/ml of anti-human Fc antibody at pH 5 was immobilized on a CM5 sensor chip through amine coupling at flow rate of 5 μl/minute on all two flow cells to reach 10,500 RUs. 0.1-1 μg/ml of test antibodies were then injected at 10 μl/min for 1 minute. Captured levels of the antibodies were generally kept below 200 RUs. […]
# [1] = system: surface cKIT on GIST-T1 cells; assay: Ab-mediated internalization of surface cKIT by flow cytometry; type: cell-based, human; conditions: 10 ug/ml, 30 min to 24 hr at 37° C.
# Sequence of surface cKIT on GIST-T1 cells (P10721 26-509 limits assumed): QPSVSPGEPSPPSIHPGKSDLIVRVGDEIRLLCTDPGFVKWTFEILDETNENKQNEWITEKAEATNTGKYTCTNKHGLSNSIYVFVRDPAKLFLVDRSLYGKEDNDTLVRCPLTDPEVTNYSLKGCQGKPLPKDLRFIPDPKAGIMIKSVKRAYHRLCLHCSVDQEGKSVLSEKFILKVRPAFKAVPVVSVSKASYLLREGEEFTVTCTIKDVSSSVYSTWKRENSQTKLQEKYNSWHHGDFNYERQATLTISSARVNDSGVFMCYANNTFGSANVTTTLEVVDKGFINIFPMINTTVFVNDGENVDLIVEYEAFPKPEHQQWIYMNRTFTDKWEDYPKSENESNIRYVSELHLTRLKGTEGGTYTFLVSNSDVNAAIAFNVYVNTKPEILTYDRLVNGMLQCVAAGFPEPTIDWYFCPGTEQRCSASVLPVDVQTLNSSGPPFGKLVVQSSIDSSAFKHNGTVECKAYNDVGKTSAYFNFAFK
# Method: The kinetics of cKIT antibody mediated internalization was evaluated by treating with antibody in a cell monolayer using a temperature shift method and flow cytometry readout. GIST-T1 (kindly provided by Dr. Takahiro Taguchi, Kochi U., Japan) cells were seeded at 2.5×10E5 cells/well in five 12-well tissue culture treated plates (BD Falcon 353043). The cells were incubated in a tissue culture incubator at 37° C. with 5% CO2 overnight. The following day medium was removed and replaced with 450 ul fresh medium. […] All cells were incubated for 1 hr on ice, followed by two washes with 1 mL 1× Phosphate buffered saline (PBS) and resuspended in 500 μl cell culture medium. Plates #2-5 were transferred to 37° C. and harvested at time points; 30 min, 2 hr, 4 hr and 24 hr at 37° C. with 5% CO2. 100 μl of cell dissociation buffer (Gibco Cat#13150-016, Life Technologies, Carlsbad, Calif.) was added to plate#1 (4° C. binding control) and incubated at 37° C. until cells were detached. […] The following day, all samples were analyzed using the BD FACSCanto II® equipment using a HTS system (BD Biosciences, San Jose, Calif.). Samples were analyzed with FlowJo software to obtain the Geometric Mean values of fluorescence for the Phyeoerythrin channel, FIG. 13A is a plot of % of initial cell surface binding vs […] at 37° C.×100.
# primary human mast cells = assay: Mast cell apoptosis (Caspase-Glo 3/7); type: cell-based; conditions: 0.05-100 nM, 1.6 nM rhSCF, 48 h
# Method: Primary human mast cells were cultured from peripheral human blood according to the methods described by Saito et al., Nature Protocols 2006; 1(4):2178-2183. […] Following 30 min incubation at RT, luminescence was recorded on the BioTek Synergy plate reader (BioTek, Winooski, Vt.).
molecule,measurement,setting,value
"NEG085: anti-cKIT antibody of Table 1; VH SEQ ID NO 82, VL SEQ ID NO 91; derived from 9P3 (antibody, V domains shown) VH: EVQLVESGGGLVQPGGSLRLSCAASGFAFSGYYMAWVRQAPGKGLEWVANINYPGSSTYYLDSVKGRFTISRDNAKNSLYLQMNSLRAEDTAVYYCARGDYYGTTYWYFDVWGQGTTVTVSS VL: DIQMTQSPSSLSASVGDRVTITCRASQSISSYLNWYQQKPGKAPKLLIYYTSRLQSGVPSRFSGSGSGTDFTLTISSLQPEDFATYYCQQGRRLWSFGGGTKVEIK",effect on cell proliferation,Mo7e cells,no detrimental effect on cell proliferation
same,reaction with human cKIT,human cKIT ECD,nanomolar level
same,internalization after binding cKIT on the cell surface,[1],rapidly internalized into the cell
same,mast cell apoptosis,primary human mast cells,do not lead to apoptosis of human primary mast cells ex vivo

# — US10117953B2, “Antibody drug conjugates” (Novartis AG, priority 2013, dated 2018)
